# Patent publication US12630600B2 (MEDIMMUNE LIMITED, priority 2022, dated 2026)
# Starred links: 1 amine or outer side, 2 acyl side, 3 side chain; linkers in the order of their positions; H or OH if unused. Non-standard residues stand in square brackets, D forms with d. Groups on a side chain read outwards from the residue. No end group written: not given here. *: point of attachment. C20 diacid = O=C(O)CCCCCCCCCCCCCCCCCCC(=O)*; C18 diacid = O=C(O)CCCCCCCCCCCCCCCCC(=O)*; γGlu = O=C(O)[C@H](CCC(=O)[*:2])N[*:1]; αMeF = C[C@](N)(Cc1ccccc1)C(=O)O; AEEA = NCCOCCOCC(=O)O; Aib = CC(C)(N)C(=O)O
# B1: Peptide 472 (peptide)
# peptide: H[Aib]QGTFTSDVSK[αMeF]LDKK([AEEA-AEEA-γGlu-C18 diacid])RARDFVQWLL[Aib]E-NH2
# modifications: N-terminus assumed
# SMILES: CC(C)C[C@H](NC(=O)[C@H](Cc1c[nH]c2ccccc12)NC(=O)[C@H](CCC(N)=O)NC(=O)[C@@H](NC(=O)[C@H](Cc1ccccc1)NC(=O)[C@H](CC(=O)O)NC(=O)[C@H](CCCNC(=N)N)NC(=O)[C@H](C)NC(=O)[C@H](CCCNC(=N)N)NC(=O)[C@H](CCCCNC(=O)COCCOCCNC(=O)COCCOCCNC(=O)CC[C@H](NC(=O)CCCCCCCCCCCCCCCCC(=O)O)C(=O)O)NC(=O)[C@H](CCCCN)NC(=O)[C@H](CC(=O)O)NC(=O)[C@H](CC(C)C)NC(=O)[C@](C)(Cc1ccccc1)NC(=O)[C@H](CCCCN)NC(=O)[C@H](CO)NC(=O)[C@@H](NC(=O)[C@H](CC(=O)O)NC(=O)[C@H](CO)NC(=O)[C@@H](NC(=O)[C@H](Cc1ccccc1)NC(=O)[C@@H](NC(=O)CNC(=O)[C@H](CCC(N)=O)NC(=O)C(C)(C)NC(=O)[C@@H](N)Cc1c[nH]cn1)[C@@H](C)O)[C@@H](C)O)C(C)C)C(C)C)C(=O)N[C@@H](CC(C)C)C(=O)NC(C)(C)C(=O)N[C@@H](CCC(=O)O)C(N)=O
# B2: Peptide 465 (peptide)
# peptide: H[Aib]QGTFTSDVSK[αMeF]LDLK([AEEA-AEEA-γGlu-γGlu-C18 diacid])RAQDFVQWLL[Aib]T-OH
# modifications: N-terminus assumed
# SMILES: CC(C)C[C@H](NC(=O)[C@H](CC(=O)O)NC(=O)[C@H](CC(C)C)NC(=O)[C@](C)(Cc1ccccc1)NC(=O)[C@H](CCCCN)NC(=O)[C@H](CO)NC(=O)[C@@H](NC(=O)[C@H](CC(=O)O)NC(=O)[C@H](CO)NC(=O)[C@@H](NC(=O)[C@H](Cc1ccccc1)NC(=O)[C@@H](NC(=O)CNC(=O)[C@H](CCC(N)=O)NC(=O)C(C)(C)NC(=O)[C@@H](N)Cc1c[nH]cn1)[C@@H](C)O)[C@@H](C)O)C(C)C)C(=O)N[C@@H](CCCCNC(=O)COCCOCCNC(=O)COCCOCCNC(=O)CC[C@H](NC(=O)CC[C@H](NC(=O)CCCCCCCCCCCCCCCCC(=O)O)C(=O)O)C(=O)O)C(=O)N[C@@H](CCCNC(=N)N)C(=O)N[C@@H](C)C(=O)N[C@@H](CCC(N)=O)C(=O)N[C@@H](CC(=O)O)C(=O)N[C@@H](Cc1ccccc1)C(=O)N[C@H](C(=O)N[C@@H](CCC(N)=O)C(=O)N[C@@H](Cc1c[nH]c2ccccc12)C(=O)N[C@@H](CC(C)C)C(=O)N[C@@H](CC(C)C)C(=O)NC(C)(C)C(=O)N[C@H](C(=O)O)[C@@H](C)O)C(C)C
# B3: Peptide 466 (peptide)
# peptide: H[Aib]QGTFTSDVSK[αMeF]LDTK([AEEA-AEEA-γGlu-C18 diacid])RAQDFVQWLLE[Aib]G-NH2
# modifications: N-terminus assumed
# SMILES: CC(C)C[C@H](NC(=O)[C@H](Cc1c[nH]c2ccccc12)NC(=O)[C@H](CCC(N)=O)NC(=O)[C@@H](NC(=O)[C@H](Cc1ccccc1)NC(=O)[C@H](CC(=O)O)NC(=O)[C@H](CCC(N)=O)NC(=O)[C@H](C)NC(=O)[C@H](CCCNC(=N)N)NC(=O)[C@H](CCCCNC(=O)COCCOCCNC(=O)COCCOCCNC(=O)CC[C@H](NC(=O)CCCCCCCCCCCCCCCCC(=O)O)C(=O)O)NC(=O)[C@@H](NC(=O)[C@H](CC(=O)O)NC(=O)[C@H](CC(C)C)NC(=O)[C@](C)(Cc1ccccc1)NC(=O)[C@H](CCCCN)NC(=O)[C@H](CO)NC(=O)[C@@H](NC(=O)[C@H](CC(=O)O)NC(=O)[C@H](CO)NC(=O)[C@@H](NC(=O)[C@H](Cc1ccccc1)NC(=O)[C@@H](NC(=O)CNC(=O)[C@H](CCC(N)=O)NC(=O)C(C)(C)NC(=O)[C@@H](N)Cc1c[nH]cn1)[C@@H](C)O)[C@@H](C)O)C(C)C)[C@@H](C)O)C(C)C)C(=O)N[C@@H](CC(C)C)C(=O)N[C@@H](CCC(=O)O)C(=O)NC(C)(C)C(=O)NCC(N)=O
# B4: Peptide 469 (peptide)
# peptide: H[Aib]QGTFTSDVSK[αMeF]LDTK([AEEA-AEEA-γGlu-γGlu-C20 diacid])RAQDFVQWLLE[Aib]G-NH2
# modifications: N-terminus assumed
# SMILES: CC(C)C[C@H](NC(=O)[C@H](Cc1c[nH]c2ccccc12)NC(=O)[C@H](CCC(N)=O)NC(=O)[C@@H](NC(=O)[C@H](Cc1ccccc1)NC(=O)[C@H](CC(=O)O)NC(=O)[C@H](CCC(N)=O)NC(=O)[C@H](C)NC(=O)[C@H](CCCNC(=N)N)NC(=O)[C@H](CCCCNC(=O)COCCOCCNC(=O)COCCOCCNC(=O)CC[C@H](NC(=O)CC[C@H](NC(=O)CCCCCCCCCCCCCCCCCCC(=O)O)C(=O)O)C(=O)O)NC(=O)[C@@H](NC(=O)[C@H](CC(=O)O)NC(=O)[C@H](CC(C)C)NC(=O)[C@](C)(Cc1ccccc1)NC(=O)[C@H](CCCCN)NC(=O)[C@H](CO)NC(=O)[C@@H](NC(=O)[C@H](CC(=O)O)NC(=O)[C@H](CO)NC(=O)[C@@H](NC(=O)[C@H](Cc1ccccc1)NC(=O)[C@@H](NC(=O)CNC(=O)[C@H](CCC(N)=O)NC(=O)C(C)(C)NC(=O)[C@@H](N)Cc1c[nH]cn1)[C@@H](C)O)[C@@H](C)O)C(C)C)[C@@H](C)O)C(C)C)C(=O)N[C@@H](CC(C)C)C(=O)N[C@@H](CCC(=O)O)C(=O)NC(C)(C)C(=O)NCC(N)=O
# B5: Peptide 474 (peptide)
# peptide: H[Aib]QGTFTSDVSK[αMeF]LDTK([AEEA-AEEA-γGlu-C18 diacid])RARDFVQWLLA[Aib]G-NH2
# modifications: N-terminus assumed
# SMILES: CC(C)C[C@H](NC(=O)[C@H](CC(C)C)NC(=O)[C@H](Cc1c[nH]c2ccccc12)NC(=O)[C@H](CCC(N)=O)NC(=O)[C@@H](NC(=O)[C@H](Cc1ccccc1)NC(=O)[C@H](CC(=O)O)NC(=O)[C@H](CCCNC(=N)N)NC(=O)[C@H](C)NC(=O)[C@H](CCCNC(=N)N)NC(=O)[C@H](CCCCNC(=O)COCCOCCNC(=O)COCCOCCNC(=O)CC[C@H](NC(=O)CCCCCCCCCCCCCCCCC(=O)O)C(=O)O)NC(=O)[C@@H](NC(=O)[C@H](CC(=O)O)NC(=O)[C@H](CC(C)C)NC(=O)[C@](C)(Cc1ccccc1)NC(=O)[C@H](CCCCN)NC(=O)[C@H](CO)NC(=O)[C@@H](NC(=O)[C@H](CC(=O)O)NC(=O)[C@H](CO)NC(=O)[C@@H](NC(=O)[C@H](Cc1ccccc1)NC(=O)[C@@H](NC(=O)CNC(=O)[C@H](CCC(N)=O)NC(=O)C(C)(C)NC(=O)[C@@H](N)Cc1c[nH]cn1)[C@@H](C)O)[C@@H](C)O)C(C)C)[C@@H](C)O)C(C)C)C(=O)N[C@@H](C)C(=O)NC(C)(C)C(=O)NCC(N)=O
# B6: Peptide 470 (peptide)
# peptide: H[Aib]QGTFTSDVSK[αMeF]LDKK([AEEA-AEEA-γGlu-C20 diacid])RARDFVQWLL[Aib]E-NH2
# modifications: N-terminus assumed
# SMILES: CC(C)C[C@H](NC(=O)[C@H](Cc1c[nH]c2ccccc12)NC(=O)[C@H](CCC(N)=O)NC(=O)[C@@H](NC(=O)[C@H](Cc1ccccc1)NC(=O)[C@H](CC(=O)O)NC(=O)[C@H](CCCNC(=N)N)NC(=O)[C@H](C)NC(=O)[C@H](CCCNC(=N)N)NC(=O)[C@H](CCCCNC(=O)COCCOCCNC(=O)COCCOCCNC(=O)CC[C@H](NC(=O)CCCCCCCCCCCCCCCCCCC(=O)O)C(=O)O)NC(=O)[C@H](CCCCN)NC(=O)[C@H](CC(=O)O)NC(=O)[C@H](CC(C)C)NC(=O)[C@](C)(Cc1ccccc1)NC(=O)[C@H](CCCCN)NC(=O)[C@H](CO)NC(=O)[C@@H](NC(=O)[C@H](CC(=O)O)NC(=O)[C@H](CO)NC(=O)[C@@H](NC(=O)[C@H](Cc1ccccc1)NC(=O)[C@@H](NC(=O)CNC(=O)[C@H](CCC(N)=O)NC(=O)C(C)(C)NC(=O)[C@@H](N)Cc1c[nH]cn1)[C@@H](C)O)[C@@H](C)O)C(C)C)C(C)C)C(=O)N[C@@H](CC(C)C)C(=O)NC(C)(C)C(=O)N[C@@H](CCC(=O)O)C(N)=O
# B7: Peptide 473 (peptide)
# peptide: H[Aib]QGTFTSDVSK[αMeF]LDRK([AEEA-AEEA-γGlu-C18 diacid])RARDFVQWLL[Aib]E-NH2
# modifications: N-terminus assumed
# SMILES: CC(C)C[C@H](NC(=O)[C@H](Cc1c[nH]c2ccccc12)NC(=O)[C@H](CCC(N)=O)NC(=O)[C@@H](NC(=O)[C@H](Cc1ccccc1)NC(=O)[C@H](CC(=O)O)NC(=O)[C@H](CCCNC(=N)N)NC(=O)[C@H](C)NC(=O)[C@H](CCCNC(=N)N)NC(=O)[C@H](CCCCNC(=O)COCCOCCNC(=O)COCCOCCNC(=O)CC[C@H](NC(=O)CCCCCCCCCCCCCCCCC(=O)O)C(=O)O)NC(=O)[C@H](CCCNC(=N)N)NC(=O)[C@H](CC(=O)O)NC(=O)[C@H](CC(C)C)NC(=O)[C@](C)(Cc1ccccc1)NC(=O)[C@H](CCCCN)NC(=O)[C@H](CO)NC(=O)[C@@H](NC(=O)[C@H](CC(=O)O)NC(=O)[C@H](CO)NC(=O)[C@@H](NC(=O)[C@H](Cc1ccccc1)NC(=O)[C@@H](NC(=O)CNC(=O)[C@H](CCC(N)=O)NC(=O)C(C)(C)NC(=O)[C@@H](N)Cc1c[nH]cn1)[C@@H](C)O)[C@@H](C)O)C(C)C)C(C)C)C(=O)N[C@@H](CC(C)C)C(=O)NC(C)(C)C(=O)N[C@@H](CCC(=O)O)C(N)=O
# Target: human glucagon receptor (human, UniProt P47871)
# Assay: cell-based or functional assay
row,Binder,cAMP production EC50 [pM]
1,B1,11.1
2,B2,436
3,B3,131
4,B4,538
5,B5,56.9
6,B6,30.3
7,H[Aib]QGTFTSDVSK[αMeF]LDTK([AEEA-AEEA-γGlu-γGlu-C18 diacid])RAQDFVQWLLE[Aib]G-NH2 [Peptide 468],292
8,B7,14.1
9,H[Aib]QGTFTSDVSK[αMeF]LDRK([AEEA-AEEA-γGlu-C20 diacid])RARDFVQWLL[Aib]E-NH2 [Peptide 471],63.6

# Target: human GLP-1 receptor (human, UniProt P43220)
# Assay: cell-based or functional assay
row,Binder,cAMP production EC50 [pM]
1,B1,7.63
2,B2,485
3,B3,35.6
4,B4,255
5,B5,8.04
6,B6,55.9
7,H[Aib]QGTFTSDVSK[αMeF]LDTK([AEEA-AEEA-γGlu-γGlu-C18 diacid])RAQDFVQWLLE[Aib]G-NH2 [Peptide 468],67.5
8,B7,11.5
9,H[Aib]QGTFTSDVSK[αMeF]LDRK([AEEA-AEEA-γGlu-C20 diacid])RARDFVQWLL[Aib]E-NH2 [Peptide 471],102
